Source: patent publication US20260227403A1

What was measured:
[1] = molecular target: peptides with further truncation from the N-terminus and C-terminus (beyond P40 and P38); assay: ELISA, 1 µg truncated peptide per well, 20 ng/mL mAb
[2] = molecular target: peptide P40 and peptide P38; assay: as above

binding efficiency in comparison to the full-length immunogenic peptide P1 (%) [1]: 75%
binding efficiency in comparison to the full-length immunogenic peptide P1 (%) [2]: 80 to 100%
B1: ETV1 rabbit monoclonal antibody (29E4) (antibody, V domains shown)
VH: QELEESGGDLVKPGASLTLTCTASGFFFSAENHICWVRQAPGKGLEWIGCVYIGSYVGGSGDPYYASWAKGRFTISKTSSTTVTLQMSSLTAADTATYFCARDLGSLWGPGTLVTVSS
VL: DVVMTQTASSVSAAVGGTVTIACQSSQSVYDNNNLAWFQQKPGQPPKRLIYSASTLASGVSSRFKGSGYGTQFTLTISDVQCDDAATYYCVGAFSGYIFVFGGGTEVVVK
